Columns and labels:
[1] = molecular target: T1, human IL1RAP extracellular domain protein (GK002, HuIL1Racp-ECD-His6) (human, UniProt Q9NPH3 21-367); assay: SPR (Biacore T200), mAb captured by anti-Fc IgG, His-tagged human IL1RAP ECD as analyte
T1 construct: also called His-tagged human IL-1RAP extracellular domain protein; HuIL1RAP-ECD-His6 (GK002)
T1 sequence: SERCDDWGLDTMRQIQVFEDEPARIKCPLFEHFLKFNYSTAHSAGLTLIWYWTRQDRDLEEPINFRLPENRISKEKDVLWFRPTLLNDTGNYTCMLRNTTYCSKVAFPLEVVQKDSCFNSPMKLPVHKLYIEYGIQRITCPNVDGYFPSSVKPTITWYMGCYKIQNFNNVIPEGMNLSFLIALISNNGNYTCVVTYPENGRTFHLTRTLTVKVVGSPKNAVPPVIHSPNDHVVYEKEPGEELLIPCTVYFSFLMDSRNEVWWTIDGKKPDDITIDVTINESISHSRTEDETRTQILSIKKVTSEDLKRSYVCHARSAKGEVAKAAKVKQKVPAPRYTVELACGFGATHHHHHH
Method: The binding kinetics and affinities of murine anti-human IL1RAP mAbs for human IL1RAP protein were determined by surface plasmon resonance technology using the Biocore T200 platform. An anti-Fc IgG antibody was immobilized on the surface of a Biacore chip and used to capture the test antibody at a flow rate of 30 µL/min. Serial dilutions of His-tagged human IL-1RAP extracellular domain protein were then flowed over the chip, with a 3-minute association phase, followed by a 20-60 minute dissociation phase. In between cycles, the Biacore chip was regenerated for 120 seconds by flowing Glycine pH 1.5 over the chip at a flow rate of 10 µL/min. Association (ka) and dissociation (kd) constants were determined, as were binding affinities (KD), with the multiple cycle kinetics algorithm.

[2] = molecular target: T2, human IL1RAP on the cell surface (HEK293/IL1RAP cells; IL1RAP-expressing OCI-AML-1 cells) (human, UniProt Q9NPH3 21-570); assay: cell-based or functional assay
T2 sequence: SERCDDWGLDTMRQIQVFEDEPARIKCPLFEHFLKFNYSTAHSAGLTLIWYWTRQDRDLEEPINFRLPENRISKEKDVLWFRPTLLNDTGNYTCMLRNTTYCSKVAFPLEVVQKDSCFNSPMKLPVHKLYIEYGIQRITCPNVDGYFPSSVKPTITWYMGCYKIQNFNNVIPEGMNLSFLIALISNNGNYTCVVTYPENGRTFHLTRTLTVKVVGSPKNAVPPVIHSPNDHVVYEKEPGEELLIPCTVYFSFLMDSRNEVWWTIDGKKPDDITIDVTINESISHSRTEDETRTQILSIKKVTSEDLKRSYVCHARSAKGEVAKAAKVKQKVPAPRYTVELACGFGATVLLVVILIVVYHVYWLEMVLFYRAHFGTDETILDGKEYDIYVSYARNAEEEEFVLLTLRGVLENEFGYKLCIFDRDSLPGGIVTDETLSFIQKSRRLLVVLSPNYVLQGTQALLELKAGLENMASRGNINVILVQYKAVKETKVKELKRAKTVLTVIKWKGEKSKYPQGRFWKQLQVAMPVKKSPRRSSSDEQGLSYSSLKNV

[3] = molecular target: T3, Soluble Human IL1RAP (sIL1RAP) (human, UniProt Q9NPH3 21-367); assay: SPR, antibody captured via Protein A on CM5 chip, 37° C., 1:1 fit, average of 2 runs
Method: (§1) Human and cyno IL1RAP ECD, and human soluble IL1RAP, were then flowed over the captured antibody to replicate non-avid target binding. Data were analyzed using a 1:1 kinetic fit model.

Cyno IL1RAP ECD [4] = molecular target: T4, Cyno IL1RAP ECD (cynomolgus monkey, UniProt A0A2K5X5J5 21-367); assay: as above
T4 construct: extracellular domain; Analyte in the GSK3903371A SPR study; also called cynomolgus monkey IL1RAP ECD
T4 sequence: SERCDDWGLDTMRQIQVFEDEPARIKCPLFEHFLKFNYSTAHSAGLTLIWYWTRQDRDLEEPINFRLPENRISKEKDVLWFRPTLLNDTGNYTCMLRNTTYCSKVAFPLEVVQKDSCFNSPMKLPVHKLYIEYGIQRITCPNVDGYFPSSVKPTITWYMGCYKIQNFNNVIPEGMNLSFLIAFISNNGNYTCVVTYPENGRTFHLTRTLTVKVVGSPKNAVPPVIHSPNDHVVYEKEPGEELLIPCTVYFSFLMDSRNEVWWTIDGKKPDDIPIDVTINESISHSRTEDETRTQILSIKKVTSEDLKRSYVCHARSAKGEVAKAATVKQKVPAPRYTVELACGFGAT
Method: as §1

Human IL1RAP ECD [5] = molecular target: T5, Human IL1RAP ECD (human, UniProt Q9NPH3 21-367); assay: as above
T5 construct: Analyte in the GSK3903371A SPR study; also called human IL1RAP extracellular domain (ECD); recombinant human IL1RAP ECD
T5 sequence: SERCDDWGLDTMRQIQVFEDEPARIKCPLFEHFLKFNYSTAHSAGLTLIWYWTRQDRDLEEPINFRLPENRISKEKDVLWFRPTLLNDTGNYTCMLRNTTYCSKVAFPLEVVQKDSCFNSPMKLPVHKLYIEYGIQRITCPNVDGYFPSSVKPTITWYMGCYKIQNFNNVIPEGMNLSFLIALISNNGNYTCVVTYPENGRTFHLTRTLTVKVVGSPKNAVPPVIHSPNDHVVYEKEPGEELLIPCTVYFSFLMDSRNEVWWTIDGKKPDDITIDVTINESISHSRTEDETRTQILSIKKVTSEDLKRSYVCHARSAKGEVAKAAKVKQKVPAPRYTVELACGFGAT
Method: as §1

[6] = molecular target: T2, human IL1RAP on the cell surface …; assay: cell-based or functional assay; remark: listed apart in the source
[7] = molecular target: T3, Soluble Human IL1RAP (sIL1RAP); assay: SPR, antibody captured via Protein A on CM5 chip, 25° C., 1:1 fit, average of 3 runs
Method: as §1

Cyno IL1RAP ECD [8] = molecular target: T4, Cyno IL1RAP ECD; assay: as above
Method: as §1

Human IL1RAP ECD [9] = molecular target: T5, Human IL1RAP ECD; assay: as above
Method: as §1

cyno IL1RAP (GK017, …) = molecular target: T6, cyno IL1RAP (GK017, CynoIL1Racp-ECD-His6) (cyno, UniProt A0A2K5X5J5 21-367); assay: SPR (Biacore T200), mAb captured by anti-human IgG Fc on CM5, ECD-His6 as analyte, 1:1 fit
T6 construct: extracellular domain; also called CynoIL1RAP-ECD-His6 (GK017); cyno IL1RAP-ECD-His6 protein
T6 sequence: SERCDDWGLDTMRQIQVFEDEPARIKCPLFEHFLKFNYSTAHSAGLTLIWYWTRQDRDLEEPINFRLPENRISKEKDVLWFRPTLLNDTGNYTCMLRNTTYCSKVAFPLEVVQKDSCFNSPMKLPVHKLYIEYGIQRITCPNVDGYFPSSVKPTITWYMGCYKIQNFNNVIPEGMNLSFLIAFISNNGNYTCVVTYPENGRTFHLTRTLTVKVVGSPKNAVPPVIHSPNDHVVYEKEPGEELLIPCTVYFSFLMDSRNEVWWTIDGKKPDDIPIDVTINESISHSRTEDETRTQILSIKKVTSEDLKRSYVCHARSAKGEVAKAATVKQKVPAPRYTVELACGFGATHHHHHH
Method: (§2) Serial dilutions of recombinant human IL1RAP-ECD-His6 protein (GK002) or cyno IL1RAP-ECD-His6 protein (GK017) were flowed over the captured humanized mAb, and the KD was determined using Biacore T200 evaluation software v1.0.
(§3) Flow cell 1 was used as reference flow cell and no antibody was injected into flow cell 1. Test antibodies were captured onto one of the flow cells 2, 3 and 4 at a flow rate of 10 µL/min. Diluted GK002 or GK017 was then injected over the 4 flow cells for 180 s at 30 µL/min flow rate to collect data for association. Buffer flow was maintained for 1200 s at 30 µL/min flow rate for dissociation measurement. At the end of the dissociation measurement, the tested antibody and antigen were removed from the surface by 10 mM glycine-HCl pH 1.5 injection for 60 seconds at a flow rate of 10 µL/min. The above steps were repeated for each concentration of serially-diluted His-tagged IL1RAP ECD protein. The KD value for each antibody was evaluated using Biacore T200 evaluation software 1.0, and the data was fit with a 1:1 binding model.

[10] = molecular target: T1, human IL1RAP extracellular domain …; assay: as above
Method: as §2, §3

B1: murine mAb048 (antibody, V domains shown)
VH: QVQLQQPGADLVKPGASVKLSCKAYGYTFFSYWMHWVRQRPGQGLEWIGMIHPNSGTTNNNEKFKSKATLTVDKSFSTAYMQLSSLTSEDSAVYYCARGYSNYDFDYWGQGTILTVSS
VL: DIKMTQFPSSMYASLGERVTITCKASQDINTYLIWIQQKPGKSPKTLIYRANRLADGVPSRFSGSGSGQDSSLTISSLEHEDMGIYYCLQYDEFPYTFGGGTKLEIK
notes: Murine anti-human IL1RAP mAb
B1 gave a Kd [1] of 0.357 nM, a koff [1] of 4.48e-05 s⁻¹ and a kon [1] of 125000 M⁻¹ s⁻¹.

B2: murine mAb001 (antibody, V domains shown)
VH: QVQLQQPGAELVRPGSSVKLSCKASGYTFTSYWMDWVKQRPGQGLEWIGNIYPSDSKTHYNQKFKDKATLTVDKSSSTAYMQLSSLTSEDSAVYYCARDYYGSIGMDYWGQGTSVTVSS
VL: DIQMTQSPSSLSASLGERVSLTCRASQEISGYLSWLQQKPDGTIKRLIYAASTLDSGVPKRFSGSRSGSDYSLTISSLESEDFADYYCLQYASYPWTFGGGTKLEIK
notes: Murine anti-human IL1RAP mAb
B2 showed a Kd [1] of 4.97 nM, a koff [1] of 0.000282 s⁻¹ and a kon [1] of 56700 M⁻¹ s⁻¹.

B3: mAb063 (antibody, V domains shown)
VH: EVQLQQSGPELVKPGASVKISCKASGYTFTDYYMNWVKQSHGKSLEWIGHINPNSGSTTYTEKFKDKATLTVDKSSSTAYMELRSLTSDDSAVYYCVRRIGKNWHCDVWGTGTTVTVSS
VL: DIVLTQSPASLAVSLGQRATISCRASESVNFHGTHLMHWYQQKPGQAPKLLIYAASNLDSGVPARFSGSGSETDFTLNIHPVEEEDAATYFCQQSIEDPFTFGSGTYLEIK
notes: Murine anti-human IL1RAP mAb; also called murine mAb063
Binder B3 has a Kd [1] of 0.0496 nM, a koff [1] of 2.12e-05 s⁻¹ and a kon [1] of 426000 M⁻¹ s⁻¹.

B4: murine mAb117 (antibody, V domains shown)
VH: QAYLQQSGAELVRPGASVKMSCKASGYTFTSYNMHWVKQSPRQGLEWVGVFYLGNGDTSYNEKFKGKATLTVDKSSSTAYMQLSSLTSEDSAVYFCARPGGYANWYFDVWGTGTTVTVSS
VL: DIVMTQSQKFMSTSVGDWVSVTCKASQNVGTEVSWYQQKPGQSPNTLIYSASYRHSGVPDRFTGSGSGTEFTLTITNVQSEDLADYFCQQYNSFPLTFGAGTKLDLK
notes: Murine anti-human IL1RAP mAb
In the case of B4, the Kd [1] is reported as 0.193 nM, the koff [1] is reported as 4.28e-05 s⁻¹ and the kon [1] is reported as 222000 M⁻¹ s⁻¹.

B5: murine mAb067 (antibody, V domains shown)
VH: QVKLHQSGAELAKPGASVKMSCKASGYTFNSYWIHWVKQRPGQGLEWIGYNNPTSGYSEYNQKFTDKATLSADKSSSTAYMQLSSLTSEDSAVYYCVREYGDLFAYWGQGTLVTVSA
VL: NIVMTQSPKSMSMSVGERVTLSCKASENVGYSVSWFQQKPDQSPKLLIYGASNRYTGVPDRFTGSGSATDFTLTISTVQAEDLADYHCGQIYIYPYTFGGGTKLEIK
notes: Murine anti-human IL1RAP mAb
Binder B5 has a Kd [1] of 0.3 nM, a koff [1] of 0.000102 s⁻¹ and a kon [1] of 340000 M⁻¹ s⁻¹.

B6: GSK3903371A (antibody, human IgG1, kappa, V domains shown)
VH: EVQLVQSGAEVKKPGSSVKVSCKASGYTFNSYWIHWVRQAPGQGLEWMGYNNPTSGYSEYNQKFTDRVTITADKSTSTAYMELSSLRSEDTAVYYCAREYGDLFAYWGQGTLVTVSS
VL: AIQMTQSPSSLSASVGDRVTITCKASENVGYSVSWFQQKPGKSPKLLIYGASNRYTGVPSRFSGSGSATDFTLTISSLQPEDFATYHCGQIYIYPYTFGGGTKVEIKR
modifications: heavy chain constant region afucosylated (expressed in FUT8-knockout POTELLIGENT CHO cells)
notes: Humanized IgG1 kappa; also called afucosylated anti-IL1RAP mAb GSK3903371A
In the case of B6, the “ADCC EC50, PBMC effector cells, OCI-AML-1 target cells, experiment 1” value [2] is reported as 0.0633 nM, the “ADCC EC50, PBMC effector cells, OCI-AML-1 target cells, experiment 2” value [2] is reported as 0.0589 nM and the “ADCC EC50, PBMC effector cells, OCI-AML-1 target cells, experiment 3” value [2] is reported as 0.0705 nM. The “ADCC EC50, geometric mean (n=3), OCI-AML-1 target cells” value [2] was 0.0641 nM, the Kd [3] was 3.58 nM and the koff [3] was 0.00101 s⁻¹. The Kd (Cyno IL1RAP ECD [4]) was 3.47 nM, the koff (Cyno IL1RAP ECD [4]) was 0.000946 s⁻¹ and the Kd (Human IL1RAP ECD [5]) was 2.54 nM. The koff (Human IL1RAP ECD [5]) was 0.000942 s⁻¹, the “CDC EC50, HEK293/IL1RAP target cells, experiment 1” value [6] was 6.16 nM and the “CDC EC50, HEK293/IL1RAP target cells, experiment 2” value [6] was 5.9 nM. It also gave a Kd [7] of 2.03 nM, a koff [7] of 0.000199 s⁻¹ and a Kd (Cyno IL1RAP ECD [8]) of 1.53 nM. The koff (Cyno IL1RAP ECD [8]) was 0.000226 s⁻¹, the Kd (Human IL1RAP ECD [9]) was 1.61 nM and the koff (Human IL1RAP ECD [9]) was 0.000268 s⁻¹.

B7: mAb067-12 (humanized) (antibody, human IgG1, kappa, V domains shown)
VH: EVQLVQSGAEVKKPGSSVKVSCKASGYTFNSYWIHWVRQAPGQGLEWMGYNNPTSGYSEYNQKFTDRVTITADKSTSTAYMELSSLRSEDTAVYYCAREYGDLFAYWGQGTLVTVSS
VL: AIQMTQSPSSLSASVGDRVTITCKASENVGYSVSWFQQKPGKSPKLLIYGASNRYTGVPSRFSGSGSATDFTLTISSLQPEDFATYHCGQIYIYPYTFGGGTKVEIKR
notes: Fucosylated humanized IgG1; same chains as GSK3903371A; also called HumAb67-12; HumAb067-12
In the case of B7, the “CDC EC50, HEK293/IL1RAP target cells, experiment 1” value [6] is reported as 5.13 nM, the “CDC EC50, HEK293/IL1RAP target cells, experiment 2” value [6] is reported as 4.7 nM and the Kd (cyno IL1RAP (GK017, …)) is reported as 0.899 nM. It also gave a koff (cyno IL1RAP (GK017, …)) of 0.00015 s⁻¹, a kon (cyno IL1RAP (GK017, …)) of 167000 M⁻¹ s⁻¹ and a Kd [10] of 0.953 nM. For the same binder, the koff [10] was 0.000161 s⁻¹ and the kon [10] was 169000 M⁻¹ s⁻¹.
